Results: the supplement of paper PMC5998384

What was measured:
[1] = test system: HeLa Kyoto; assay: solubility in G1/S (NP-40 vs SDS abundance) (log2 ratio); higher = more soluble; settings: cell cycle stage: G1/S
[2] = test system: HeLa Kyoto; assay: melting temperature (median over replicates), in situ; higher = more thermally stable
[3] = test system: HeLa Kyoto; assay: solubility change mitosis vs G1/S (difference of NP-40 vs SDS log2 ratios) (log2 ratio difference); higher = more soluble in mitosis
[4] = test system: HeLa Kyoto; assay: thermal stability score vs G1/S (z-score of summed log2 fold changes over temperatures); higher = more thermally stable than in G1/S
[5] = cell cycle stage: early G1 (4.5 h after nocodazole release)
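Throughout, for melting temperature (median over replicates), in situ: HeLa Kyoto cells synchronized by double thymidine or nocodazole block, proteins quantified by TMT10plex mass spectrometry, three independent biological replicates.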
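Throughout, for solubility change mitosis vs G1/S (difference of NP-40 vs SDS log2 ratios): synchronized HeLa Kyoto cells (double thymidine block for G1/S, nocodazole release for mitosis), protein amounts in NP-40 versus SDS lysates quantified by mass spectrometry, three biological replicates.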
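Throughout, for solubility in G1/S (NP-40 vs SDS abundance): HeLa Kyoto cells arrested at G1/S by double thymidine block, proteins quantified by TMT10plex mass spectrometry in mild NP-40 versus SDS extracts, three biological replicates.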
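Throughout, for thermal stability score vs G1/S (z-score of summed log2 fold changes over temperatures): synchronized HeLa Kyoto cells, proteins quantified by TMT10plex mass spectrometry, three biological replicates, mitosis taken 0.5 h after nocodazole release, G1/S directly after double thymidine block.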

Substance	solubility in G1/S (log2) [1]	melting temperature ([2]; cell cycle stage: G1/S) [°C]	melting temperature ([2]; cell cycle stage: mitosis) [°C]	solubility change mitosis (log2) [3]	thermal stability score [4, 5]	thermal stability score ([4]; cell cycle stage: mitosis)
MGKVRGLRARVHQAAVRPKGEAAPGPAPPAPEATPPPASAAGKDWAFINTNIFARTKIDPSALVQKLELDVRSVTSVRRGEAGSSARSVPSIRRGAEAKTVLPKKEKMKLRREQWLQKIEAIKLAEQKHREERRRRATVVVGDLHPLRDALPELLGLEAGSRRQARSRESNKPRPSELSRMSAAQRQQLLEEERTRFQELLASPAYRASPLVAIGQTLARQMQLEDGGQL [FAM207A]	-0.11	48.3	48.5	0.342	0.13	0.618
MAAAPPLRDRLSFLHRLPILLKGTSDDDVPCPGYLFEEIAKISHESPGSSQCLLEYLLSRLHSSSGHGKLKVLKILLYLCSHGSSFFLLILKRNSAFIQEAAAFAGPPDPLHGNSLYQKVRAAAQDLGSTLFSDTVLPLAPSQPLGTPPATGMGSQARPHSTLQGFGYSKEHGRTAVRHQPGQAGGGWDELDSGPSSQNSSQNSDLSRVSDSGSHSGSDSHSGASREPGDLAERVEVVALSDCQQELSLVRTVTRGPRAFLSREEAQHFIKACGLLNCEAVLQLLTCHLRGTSECTQLRALCAIASLGSSDLLPQEHILLRTRPWLQELSMGSPGPVTNKATKILRHFEASCGQLSPARGTSAEPGPTAALPGPSDLLTDAVPLPGSQVFLQPLSSTPVSSRSPAPSSGMPSSPVPTPPPDASPIPAPGDPSEAEARLAESRRWRPERIPGGTDSPKRGPSSCAWSRDSLFAGMELVACPRLVGAGAAAGESCPDAPRAPQTSSQRTAAKEPPGSEPSAFAFLNA [ENTHD2]	0.305	53.4	50.6	0.0532	-0.323	-0.0735
ABCD1	-0.353	49.9	49.7	-0.0995	0.954	0.963
MASQLQNRLRSALALVTGAGSGIGRAVSVRLAGEGATVAACDLDRAAAQETVRLLGGPGSKEGPPRGNHAAFQADVSEARAARCLLEQVQACFSRPPSVVVSCAGITQDEFLLHMSEDDWDKVIAVNLKGTFLVTQAAAQALVSNGCRGSIINISSIVGKVGNVGQTNYAASKAGVIGLTQTAARELGRHGIRCNSVLPGFIATPMTQKVPQKVVDKITEMIPMGHLGDPEDVADVVAFLASEDSGYITGTSVEVTGGLFM [HSD17B8]	0.368	55.3	56.3	0.119	-0.337	-1.5
MTECFLPPTSSPSEHRRVEHGSGLTRTPSSEEISPTKFPGLYRTGEPSPPHDILHEPPDVVSDDEKDHGKKKGKFKKKEKRTEGYAAFQEDSSGDEAESPSKMKRSKGIHVFKKPSFSKKKEKDFKIKEKPKEEKHKEEKHKEEKHKEKKSKDLTAADVVKQWKEKKKKKKPIQEPEVPQIDVPNLKPIFGIPLADAVERTMMYDGIRLPAVFRECIDYVEKYGMKCEGIYRVSGIKSKVDELKAAYDREESTNLEDYEPNTVASLLKQYLRDLPENLLTKELMPRFEEACGRTTETEKVQEFQRLLKELPECNYLLISWLIVHMDHVIAKELETKMNIQNISIVLSPTVQISNRVLYVFFTHVQELFGNVVLKQVMKPLRWSNMATMPTLPETQAGIKEEIRRQEFLLNCLHRDLQGGIKDLSKEERLWEVQRILTALKRKLREAKRQECETKIAQEIASLSKEDVSKEEMNENEEVINILLAQENEILTEQEELLAMEQFLRRQIASEKEEIERLRAEIAEIQSRQQHGRSETEEYSSESESESEDEEELQIILEDLQRQNEELEIKNNHLNQAIHEEREAIIELRVQLRLLQMQRAKAEQQAQEDEEPEWRGGAVQPPRDGVLEPKAAKEQPKAGKEPAKPSPSRDRKETSI [RALBP1]	0.0284	47.8	50.4	0.12	0.156	0.441
MIFPVARYALRWLRRPEDRAFSRAAMEMALRGVRKVLCVAEKNDAAKGIADLLSNGRMRRREGLSKFNKIYEFDYHLYGQNVTMVMTSVSGHLLAHDFQMQFRKWQSCNPLVLFEAEIEKYCPENFVDIKKTLERETRQCQALVIWTDCDREGENIGFEIIHVCKAVKPNLQVLRARFSEITPHAVRTACENLTEPDQRVSDAVDVRQELDLRIGAAFTRFQTLRLQRIFPEVLAEQLISYGSCQFPTLGFVVERFKAIQAFVPEIFHRIKVTHDHKDGIVEFNWKRHRLFNHTACLVLYQLCVEDPMATVVEVRSKPKSKWRPQALDTVELEKLASRKLRINAKETMRIAEKLYTQGYISYPRTETNIFPRDLNLTVLVEQQTPDPRWGAFAQSILERGGPTPRNGNKSDQAHPPIHPTKYTNNLQGDEQRLYEFIVRHFLACCSQDAQGQETTVEIDIAQERFVAHGLMILARNYLDVYPYDHWSDKILPVYEQGSHFQPSTVEMVDGETSPPKLLTEADLIALMEKHGIGTDATHAEHIETIKARMYVGLTPDKRFLPGHLGMGLVEGYDSMGYEMSKPDLRAELEADLKLICDGKKDKFVVLRQQVQKYKQVFIEAVAKAKKLDEALAQYFGNGTELAQQEDIYPAMPEPIRKCPQCNKDMVLKTKKNGGFYLSCMGFPECRSAVWLPDSVLEASRDSSVCPVCQPHPVYRLKLKFKRGSLPPTMPLEFVCCIGGCDDTLREILDLRFSGGPPRASQPSGRLQANQSLNRMDNSQHPQPADSRQTGSSKALAQTLPPPTAAGESNSVTCNCGQEAVLLTVRKEGPNRGRQFFKCNGGSCNFFLWADSPNPGAGGPPALAYRPLGASLGCPPGPGIHLGGFGNPGDGSGSGTSCLCSQPSVTRTVQKDGPNKGRQFHTCAKPREQQCGFFQWVDENTAPGTSGAPSWTGDRGRTLESEARSKRPRASSSDMGSTAKKPRKCSLCHQPGHTRPFCPQNR [TOP3A]	-0.336	46.9	48.4	0.0865	1.18	1.85
MASGEHSPGSGAARRPLHSAQAVDVASASNFRAFELLHLHLDLRAEFGPPGPGAGSRGLSGTAVLDLRCLEPEGAAELRLDSHPCLEVTAAALRRERPGSEEPPAEPVSFYTQPFSHYGQALCVSFPQPCRAAERLQVLLTYRVGEGPGVCWLAPEQTAGKKKPFVYTQGQAVLNRAFFPCFDTPAVKYKYSALIEVPDGFTAVMSASTWEKRGPNKFFFQMCQPIPSYLIALAIGDLVSAEVGPRSRVWAEPCLIDAAKEEYNGVIEEFLATGEKLFGPYVWGRYDLLFMPPSFPFGGMENPCLTFVTPCLLAGDRSLADVIIHEISHSWFGNLVTNANWGEFWLNEGFTMYAQRRISTILFGAAYTCLEAATGRALLRQHMDITGEENPLNKLRVKIEPGVDPDDTYNETPYEKGFCFVSYLAHLVGDQDQFDSFLKAYVHEFKFRSILADDFLDFYLEYFPELKKKRVDIIPGFEFDRWLNTPGWPPYLPDLSPGDSLMKPAEELAQLWAAEELDMKAIEAVAISPWKTYQLVYFLDKILQKSPLPPGNVKKLGDTYPSISNARNAELRLRWGQIVLKNDHQEDFWKVKEFLHNQGKQKYTLPLYHAMMGGSEVAQTLAKETFASTASQLHSNVVNYVQQIVAPKGS [RNPEP]	0.182	50.1	50.3	-0.179	1.06	1.25
MVAPGSVTSRLGSVFPFLLVLVDLQYEGAECGVNADVEKHLELGKKLLAAGQLADALSQFHAAVDGDPDNYIAYYRRATVFLAMGKSKAALPDLTKVIQLKMDFTAARLQRGHLLLKQGKLDEAEDDFKKVLKSNPSENEEKEAQSQLIKSDEMQRLRSQALNAFGSGDYTAAIAFLDKILEVCVWDAELRELRAECFIKEGEPRKAISDLKAASKLKNDNTEAFYKISTLYYQLGDHELSLSEVRECLKLDQDHKRCFAHYKQVKKLNKLIESAEELIRDGRYTDATSKYESVMKTEPSIAEYTVRSKERICHCFSKDEKPVEAIRVCSEVLQMEPDNVNALKDRAEAYLIEEMYDEAIQDYETAQEHNENDQQIREGLEKAQRLLKQSQKRDYYKILGVKRNAKKQEIIKAYRKLALQWHPDNFQNEEEKKKAEKKFIDIAAAKEVLSDPEMRKKFDDGEDPLDAESQQGGGGNPFHRSWNSWQGFNPFSSGGPFRFKFHFN [DNAJC3]	0.202	53.3	54.4	-0.0724	5	3.84
MASESDTEEFYDAPEDVHLGGGYPVGSPGKVGLSTFKETENTAYKVGNESPVQELKQDVSKKIIESIIEESQKVLQLEDDSLDSKGKELSDQATASPIVARTDLSNIPGLLAIDQVLPEESQKAESQNTFEETELELKKCFPSDETCEKPVDETTKLTQTSSTEQLNVLETETEVLNKEAVEVKGGGDVLEPVSSDSLSTKDFAAVEEVAPAKPPRHLTPEPDIVASTKKPVPARPPPPTNFPPPRPPPPSRPAPPPRKRKSELEFETLKTPDIDVPKENITSDSLLTASMASESTVKDSQPSLDLASATSGDKIVTAQENGKAPDGQTVAGEVMGPQRPRSNSGRELTDEEILASVMIKNLDTGEEIPLSLAEEKLPTGINPLTLHIMRRTKEYVSNDAAQSDDEEKLQSQPTDTDGGRLKQKTTQLKKFLGKSVKRAKHLAEEYGERAINKVKSVRDEVFHTDQDDPSSSDDEGMPYTRPVKFKAAHGFKGPYDFDQIKVVQDLSGEHMGAVWTMKFSHCGRLLASAGQDNVVRIWALKNAFDYFNNMRMKYNTEGRVSPSPSQESLSSSKSDTDTGVCSGTDEDPDDKNAPFRQRPFCKYKGHTADLLDLSWSKNYFLLSSSMDKTVRLWHISRRECLCCFQHIDFVTAIAFHPRDDRYFLSGSLDGKLRLWNIPDKKVALWNEVDGQTKLITAANFCQNGKYAVIGTYDGRCIFYDTEHLKYHTQIHVRSTRGRNKVGRKITGIEPLPGENKILVTSNDSRIRLYDLRDLSLSMKYKGYVNSSSQIKASFSHDFTYLVSGSEDKYVYIWSTYHDLSKFTSVRRDRNDFWEGIKAHNAVVTSAIFAPNPSLMLSLDVQSEKSEGNEKSEDAEVLDATPSGIMKTDNTEVLLSADFTGAIKVFVNKRKNVS [WDR44]	-0.102	55.7	55.1	-0.145	-1.63	-2.21
MLPLLRCVPRVLGSSVAGLRAAAPASPFRQLLQPAPRLCTRPFGLLSVRAGSERRPGLLRPRGPCACGCGCGSLHTDGDKAFVDFLSDEIKEERKIQKHKTLPKMSGGWELELNGTEAKLVRKVAGEKITVTFNINNSIPPTFDGEEEPSQGQKVEEQEPELTSTPNFVVEVIKNDDGKKALVLDCHYPEDEVGQEDEAESDIFSIREVSFQSTGESEWKDTNYTLNTDSLDWALYDHLMDFLADRGVDNTFADELVELSTALEHQEYITFLEDLKSFVKSQ [C1QBP]	0.515	52.6	52	0.179	-1.11	-3.14
